Patent US20100330578 (published 2010)

Molecular target: human alpha-thrombin (Homo sapiens, UniProt P00734;P00734 P00734:328-363,P00734:364-622)
Assay: MST; 100 nM aptamer titrated with 0-16580 nM thrombin; 10% human serum, 1x SSC (150 mM NaCl, 15 mM Na3-citrate, pH 7.2), 5 mM KCl, 1 mM CaCl2, 1 mM MgCl2; IR-laser t

TGGTTGGTGTGGTTGGT (ssDNA) [Cy5-labelled thrombin DNA aptamer]
binding result: binds
